Laboratory results: patent US7052704B2, “Methods and compositions for lipidization of hydrophilic molecules” (University of Southern California, priority 1995, dated 2006)

Tests used:
Caco-2 monolayers = test: Transport of single- and multiple-conjugates across Caco-2 monolayers in transwells; format: cell-based, Human
Experimental: Confluent cell monolayers, 2 to 3 weeks old, and having a TEER value of approximately 500 Ωcm^2, were first incubated with Dulbecco's MEM containing 1% of FBS for 30 min at 37° C. Subsequently, the incubation medium was removed, and the ^125I-BBI (10 μg/ml) conjugates in 1.5 ml of the medium was added to the apical chamber of the transwells. To the basal chamber, 2.5 ml of the medium was added and the transwells were incubated at 37° C. At predetermined times, the entire basal chamber medium (2.5 ml) from each transwell was removed and counted for radioactivity using a gamma counter. In each experiment, typically seven samples were taken at 1, 2, 3, 4, 5, 6 and 24 hr post-incubation. After the 24 hr samples were taken, the cell monolayers were rinsed three times with ice-cold PBS, cut out of the inserts, and counted for accumulated radioactivity using a gamma counter.
The integrity of the ^125I-BBI conjugates transported across the monolayers was studied using Sephadex G50 gel-filtration chromatography. Briefly, after the basal medium was sampled at 24 hr, 1.0 ml of the medium was centrifuged at 2000 rpm and then eluted from a G50 column (10 ml) using PBS; 1 ml fractions were collected and the fraction-associated radioactivity was determined using a gamma counter. Intact conjugates eluted at column void volume and fragments smaller than 1 kDa were eluted at or above the column volume.
In the transwell experiments, the conjugates were incubated with the apical side of the cells for 1 hr at 37° C. The transwells were then rinsed three times with ice-cold PBS and then reincubated with serum free medium. The release of the conjugates into the apical and the basal medium was chased for 24 hr by counting the entire basal or the apical medium at different times. The total counts obtained at the end of the chase period (transwells+media counts were added, and the release of the conjugates (% of total) at different times was calculated. To ensure that the counts obtained in the transwells at 24 hr were due to the presence of the conjugates in the cells and not non-specific binding to the plastic, the transwells were exposed to trypsin for 10 min, rinsed three times with ice-cold pbs, and subsequently counted for accumulated radioactivity.
BBI was modified with 2 or 4 palmitic acids, and the transport was determined in transwells. The cumulative transport of BBI, BBI modified with 4 palmitic acids, and BBI modified with 2 palmitic acids in Caco-2 monolayers were determined as BBI (ng/monolayer) ± SEM, n=3. The order of the transport extent was BBIssPal(4)>BBI>BBIssPal(2). The results of the internalization of the conjugates into the same cells were determined as the ng of BBI internalized per monolayer. […] The basal media obtained at 24 hr from the transwells was analyzed using a G50 column. […] However, a small, but significant, amount of the basal media of BBIssPal(2) consisted of intact conjugate. This quantity consisted of between about 10 and about 20% of the total radioactivity present in the basal medium.

C3H 10T1/2 cells = test: Plating efficiency in conjunction with transformation assay; format: cell-based; conditions: 200 cells/dish, 10 days; conjugates 1.0 μg/ml after MCA 1 μg/ml 24 hr
Experimental: The plating efficiency (PE) of the cells was also studied in conjunction with each of the transformation assays. To determine the PE of the cells in the different treatment groups, cells (200 cells/dish) were seeded into three 60-mm petri dishes per experiment group and treated in the identical manner as the transformation assay cells. The cells in these assays were terminated at 10 days, fixed with 100% methanol, and stained with giemsa; the colonies of 50 cells or more visible under a microscope were then counted. The plating efficiency is defined as the (number of colonies/number of cells seeded)*100.

[1] = Skin absorption of 125I-labeled BBI or BBIssPal; conditions: 5 μl of 0.5 mg/ml on 0.38 cm^2, 30 minutes, 23° C.

B1: BBI: hydrophilic protein which has low uptake into cells and is not orally bioavailable; used for chemoprevention (protein, UniProt P01055 40-110, looked up)
Bowman-Birk type proteinase …: DDESSKPCCDQCACTKSNPPQCRCSDMRLNSCHSACKSCICALSYPAQCFCVDITDFCYEPCKPSEDDKEN
With B1 the “order of the transport extent (cumulative transport)” value (Caco-2 monolayers; Caco-2 transwells, n=3) was “BBIssPal(4)>BBI>BBIssPal(2)”, the “transcytosis across the monolayers (G50 analysis of basal media)” value (Caco-2 monolayers; basal media at 24 hr) was “neither BBI nor BBIssPal(4) was transcytosed” and the “Plating Efficiency (%)” value (C3H 10T1/2 cells) was 24 ± 2.0%. For the same molecule, the “absorption into the mouse skins” value [1] was 0.14 μg/cm^2.
